Laboratory results as given in patent US20220387586A1 (Hoffmann-La Roche, published 2022).
Residue numbers refer to the chain shown, from its start. Values belong to the binder of their own block, whether it stands above or below them.

How the values were obtained:
biotinylated-Lag3 = target: T1, biotinylated-Lag3 (UniProt P18627 23-450, limits assumed, biotinylated); test: ELISA, inhibition of biotinylated-Lag3 binding to MHC-II on A375 cells (competitor MHC-II)
T1 construct: Probably a human LAG3 ECD construct; also called Lag3 (MHCII/ELISA)
T1 sequence (looked up): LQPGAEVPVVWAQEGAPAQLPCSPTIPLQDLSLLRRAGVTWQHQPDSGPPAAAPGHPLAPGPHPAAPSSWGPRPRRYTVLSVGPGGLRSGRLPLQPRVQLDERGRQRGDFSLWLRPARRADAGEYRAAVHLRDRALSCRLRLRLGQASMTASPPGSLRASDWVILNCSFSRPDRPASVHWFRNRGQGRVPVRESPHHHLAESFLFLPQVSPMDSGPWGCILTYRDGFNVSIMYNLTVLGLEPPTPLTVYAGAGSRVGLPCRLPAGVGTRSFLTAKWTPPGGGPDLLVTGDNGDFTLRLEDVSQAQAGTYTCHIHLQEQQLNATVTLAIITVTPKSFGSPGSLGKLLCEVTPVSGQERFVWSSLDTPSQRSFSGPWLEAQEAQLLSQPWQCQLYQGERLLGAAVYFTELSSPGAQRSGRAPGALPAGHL
Procedure: 25 μl/well of A375 cells (10000 cells/well) were seeded into tissue culture treated 384-well plates (Corning, 3701) and incubated at 37° C. overnight. […] After washing (1×90 μl in PBST) cells were fixed by addition of 30 μl/well glutaraldehyde to a final concentration of 0.05% (Sigma Cat.No: G5882), 10 min at room temperature. After washing (3×90 μl/well with PBST-buffer) 25 μl/well Poly-HRP40-Streptavidin (Fitzgerald, 65R-S104PHRPx) was added in a 1:2000 or 1:8000 dilution and incubated at RT for 1 h. After washing (3×90 μl/well with PBST-buffer) 25 μl/well TMB substrate (Roche, #11835033001) was added and incubated for 2 to 10 min. Measurement took place on a Tecan Safire 2 instrument at 370/492 nm.

[1] = target: T2, LAG3 on cells (recombinant CHO cells expressing Lag3) (human, UniProt P18627 29-525); test: cell ELISA on recombinant CHO cells expressing Lag3
T2 construct: The cell ELISA paragraphs say only 'Lag3'; also called CHO-LAG3; Lag3 cells
T2 sequence: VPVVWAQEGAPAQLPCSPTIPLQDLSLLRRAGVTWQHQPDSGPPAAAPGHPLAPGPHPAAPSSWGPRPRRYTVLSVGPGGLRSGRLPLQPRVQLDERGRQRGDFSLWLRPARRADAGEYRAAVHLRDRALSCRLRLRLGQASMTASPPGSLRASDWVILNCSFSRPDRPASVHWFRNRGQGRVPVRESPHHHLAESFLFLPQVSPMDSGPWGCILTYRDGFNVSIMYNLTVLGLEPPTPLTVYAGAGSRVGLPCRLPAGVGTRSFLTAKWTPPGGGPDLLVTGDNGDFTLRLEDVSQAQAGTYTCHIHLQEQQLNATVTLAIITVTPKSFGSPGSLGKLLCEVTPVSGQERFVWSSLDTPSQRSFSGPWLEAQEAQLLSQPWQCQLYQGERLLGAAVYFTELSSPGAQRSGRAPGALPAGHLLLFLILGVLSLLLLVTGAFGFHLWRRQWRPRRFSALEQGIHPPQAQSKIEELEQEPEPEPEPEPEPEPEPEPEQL
Procedure: After washing (1×90 μl in PBST) cells were fixed by addition of 30 μl/well glutaraldehyde to a final concentration of 0.05% (Sigma Cat.No: G5882), 10 min at room temperature. After washing (3×90 μl/well with PBST-buffer) 25 μl/well goat anti-Human Ig κ chain antibody-HRP conjugate (Milipore, AP502P) was added in a 1:1000 dilution and incubated at RT for 1 h. After washing (3×90 μl/well with PBST-buffer) 25 μl/well TMB substrate (Roche, 11835033001) was added and incubated for 6-10 min. Measurement took place on a Tecan Safire 2 instrument at 370/492 nm.

cynomolgus LAG3 on cells [2] = target: T3, cynomolgus LAG3 on cells (cynomolgus); test: flow cytometry on HEK293F cells transfected with cyno-LAG-3, antibody 10 µg/ml
T3 construct: whole, on cells; also called cyno-LAG-3; cynoLAG3
Procedure: 1.5×10⁵ cells/well were seeded into 96-well plates. […] HEK cells were incubated with indicated antibodies for 45 min on ice, washed twice with 200 μl ice-cold PBS buffer containing 2% FBS, before secondary antibody (APC-labelled goat anti-human IgG-kappa, Invitrogen, cat.no. #MH10515) was added (1:50 diluted in FACS-Puffer/well) and further incubated for 30 min on ice. Cells were again washed twice with 200 μl ice-cold PBS/2% FBS buffer before samples were finally resuspended in 150 μl FACS buffer and binding was measured on FACS CANTO-II HTS Module.

[3] = target: T4, human Fc tagged human Lag3 extra cellular domain (human, UniProt P18627 29-450, biotinylated in the epitope binning, the SA CAP SPR and the FACS competition assay); test: FACS, inhibition of biotinylated Lag3:Fc binding to MHC-II on A375 cells (competitor MHC-II); antibody 10 µg/ml
T4 construct: In-house fusion; also called huLag3-Fc; biotinylated, huFc-tagged huLag3; not shown: human Fc tag
T4 sequence: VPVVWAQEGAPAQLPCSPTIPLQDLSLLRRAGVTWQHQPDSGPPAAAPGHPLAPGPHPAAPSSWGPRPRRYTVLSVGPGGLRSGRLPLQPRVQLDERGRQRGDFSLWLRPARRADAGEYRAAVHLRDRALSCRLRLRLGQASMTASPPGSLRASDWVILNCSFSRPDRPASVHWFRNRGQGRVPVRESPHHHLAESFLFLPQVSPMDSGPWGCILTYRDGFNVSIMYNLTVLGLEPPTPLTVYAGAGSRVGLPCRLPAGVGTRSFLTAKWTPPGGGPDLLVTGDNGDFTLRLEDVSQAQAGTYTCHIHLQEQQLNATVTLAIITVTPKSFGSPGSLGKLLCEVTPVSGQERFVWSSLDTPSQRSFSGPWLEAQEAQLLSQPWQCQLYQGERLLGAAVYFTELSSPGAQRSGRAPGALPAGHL
Procedure: This analysis was studied in a FACS competition experiment: A375 cells (ATCC, #CRL-1619) were cultured for 2-3 passages in EM Eagle's medium supplemented with EBSS (PAN, cat.no. #P04-00509), 10% FBS, 2 mM L-Glutamin, 1×NEAA and 1× Sodium Pyruvate. All antibodies, were diluted in FACS buffer to a final concentration of 20 μg/ml in 25 μl (in 96well U-bottom plates). […] A375 cells were washed with PBS and adjusted to 3×10⁶ cells/ml in PBS. 100 μl were seeded per well in a 96well V-bottom plate. Plates were centrifuged and supernatant was removed. […] After this, cells were washed with 200 μl FACS buffer. […] After staining, cells were again washed and then transferred in 150 μl FACS buffer (PBS/2% FBS) to a U-bottom plate and analyzed on a FACS Canto-II using an HTS module.
All antibodies were used at 10 μg/ml final concentration.

cynomolgus LAG3 on cells [4] = target: T3, cynomolgus LAG3 on cells; test: flow cytometry on activated cynomolgus PBMC, 10 µg/ml (only 2nd Ab (rb): 5.26)
Procedure: Thus, cynomolgus peripheral blood mononuclear cells (PBMC) were prepared from fresh cynomolgus blood and were then activated by CD3/CD28 pre-treatment (1 μg/ml) for 2-3 days. […] After staining, cells were washed two times with PBS/2% FCS and analyzed on a FACS Fortessa (BD).

[5] = target: T2, LAG3 on cells (recombinant CHO cells …); test: cell-based or functional assay

IC50 (biotinylated-Lag3): 0.9 nM
CHO-cell ELISA inflexion point [1]: 48.1 ng/mL
% pos. (cynomolgus LAG3 on cells [2]): 81.6%
GeoMean (cynomolgus LAG3 on cells [2]): 9170
EC50 [nM] in Jurkat LAG3 + SED + Raji (NFAT luciferase), 1st assay [5]: 1.1 nM
EC50 [nM] in Jurkat LAG3 + SED + Raji (NFAT luciferase), 2nd assay [5]: 1 nM
EC50 [nM] in Jurkat LAG3 + SED + Raji (NFAT luciferase), 3rd assay [5]: 1.8 nM
% Inhibition [3]: 67.3%
% positive cyno cells (PBLs) after CD3/CD28 activation (cynomolgus LAG3 on cells [4]): 43%
B2: aLAG3(0414) (antibody, V domains shown)
VH: EVQLLESGGGLVQPGGSLRLSCAASGFIFDDYTMNWVRQAPGKGLEWVAVISWDGGGTYYTDSVKGRFTISRDDFKNTLYLQMNSLRAEDTAVYYCAKGLTDTTLYGSDYWGQGTLVTVSS
VL: DIQMTQSPSSLSASVGDRVTITCRASQSISSYLNWYQQKPGKAPKLLIYAASTLQSGVPSRFSGSGSGTDFTLTISSLQPEDFATYYCQQTYSSPLTFGGGTKVEIKG

IC50 (biotinylated-Lag3): 0.9 nM
CHO-cell ELISA inflexion point [1]: 37.2 ng/mL
% pos. (cynomolgus LAG3 on cells [2]): 67.9%
GeoMean (cynomolgus LAG3 on cells [2]): 4220
EC50 [nM] in Jurkat LAG3 + SED + Raji (NFAT luciferase), 1st assay [5]: 3.1 nM
EC50 [nM] in Jurkat LAG3 + SED + Raji (NFAT luciferase), 2nd assay [5]: 2.5 nM
EC50 [nM] in Jurkat LAG3 + SED + Raji (NFAT luciferase), 3rd assay [5]: 3.5 nM
% Inhibition [3]: 68.6%
% positive cyno cells (PBLs) after CD3/CD28 activation (cynomolgus LAG3 on cells [4]): 38.9%
B3: aLAG3(0416) (antibody, V domains shown)
VH: EVQLVESGGGLVQPGGSLRLACAASGFTFSDYAMSWVRQAPGKGLEWVSGIDNSGYYTYYTDSVKGRFTISRDDVKNTLYLQMNSLRAEDTAVYLCTKTHSGLIVNDAFDIWGQGTMVTVSS
VL: B2 VL with M4L, A50D, T53S, Q55E, F71A, T91S, S94T

IC50 (biotinylated-Lag3): 0.9 nM
CHO-cell ELISA inflexion point [1]: 27.8 ng/mL
% pos. (cynomolgus LAG3 on cells [2]): 75.9%
GeoMean (cynomolgus LAG3 on cells [2]): 7120
EC50 [nM] in Jurkat LAG3 + SED + Raji (NFAT luciferase), 1st assay [5]: 1 nM
% Inhibition [3]: 59.1%
% positive cyno cells (PBLs) after CD3/CD28 activation (cynomolgus LAG3 on cells [4]): 35.3%
B5: aLAG3(0417) (antibody, V domains shown)
VH: B3 VH
VL: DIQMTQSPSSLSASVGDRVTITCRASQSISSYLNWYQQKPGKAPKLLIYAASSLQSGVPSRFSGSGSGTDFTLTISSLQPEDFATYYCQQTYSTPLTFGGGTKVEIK
notes: also called aLAG3 (417)

Continued, binder first:

B1: aLAG3(0403) (antibody, V domains shown)
VH: EVQLLESGGGLVQPGGSLRLSCAASGFTFDDYTMHWVRQAPGKGLEWVSLVSWDGGGTYYTNSVKGRFTISRDNSKNTLYLQMNSLRAEDTAVYFCAKAITDTSLYGYDYWGQGILVTVSS
VL: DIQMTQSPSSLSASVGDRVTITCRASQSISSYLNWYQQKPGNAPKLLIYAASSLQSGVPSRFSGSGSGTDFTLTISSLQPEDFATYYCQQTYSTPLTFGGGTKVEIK
IC50 (biotinylated-Lag3): 0.9 nM
CHO-cell ELISA inflexion point [1]: 30.9 ng/mL
% pos. (cynomolgus LAG3 on cells [2]): 82%
GeoMean (cynomolgus LAG3 on cells [2]): 7460
% Inhibition [3]: 34.9%
% positive cyno cells (PBLs) after CD3/CD28 activation (cynomolgus LAG3 on cells [4]): 44.2%

B4: aLAG3(0411) (antibody, V domains shown)
VH: B2 VH with Q3H, F29V, A49S, G57A, T61A, T103D
VL: DIQMTQSPSSLSASVGDRVTITCRASQSIVSYLNWYQQKPGKAPKLLIYASSSLQSGVPSRFSGSGSGTDFTLTISSLQPEDFATYYCQQTYSTPLTFGGGTKVEIK
notes: also called aLAG3 (411)
IC50 (biotinylated-Lag3): 0.8 nM
CHO-cell ELISA inflexion point [1]: 41.3 ng/mL
% pos. (cynomolgus LAG3 on cells [2]): 88.6%
GeoMean (cynomolgus LAG3 on cells [2]): 11000
EC50 [nM] in Jurkat LAG3 + SED + Raji (NFAT luciferase), 1st assay [5]: 1.1 nM
EC50 [nM] in Jurkat LAG3 + SED + Raji (NFAT luciferase), 2nd assay [5]: 1 nM
% Inhibition [3]: 45.6%
% positive cyno cells (PBLs) after CD3/CD28 activation (cynomolgus LAG3 on cells [4]): 46.6%
